Assay results from paper PMC8794819, “Tuning protein half-life in mouse using sequence-defined biopolymers functionalized with lipids” (Proceedings of the National Academy of Sciences of the …, 2022).
Non-standard residues stand in square brackets, D forms with d. alkynyl palmitic acid = FA, attached to pAzF by click chemistry; Phe(4-N3) = [N-]=[N+]=Nc1ccc(C[C@H](N)C(=O)O)cc1

Experiments:
human serum albumin = target: T1, human serum albumin (human, UniProt P02768 25-609); assay: SPR; Biacore T200; HSA or MSA immobilised by amine coupling on CM5 chip (∼1,300 to 12,800 RU); ELP-GFP derivatives injected, twofold dilution series ∼0.28 to 60 µM; PBS running buffer; 60-s association, 600-s dissociation; steady-state affinity binding model; mean of four to eight independent measurements; conditions: both partners purified
T1 construct: serum albumin, human; also called HSA; source: bought: Sigma, catalog #A3782

mouse serum albumin = target: T2, mouse serum albumin (mouse, UniProt P07724 25-608); assay: as above; conditions: both partners purified
T2 construct: serum albumin, mouse, from mouse serum; also called MSA; albumin from mouse serum; source: bought: Sigma, catalog #A3139 (albumin from mouse serum)
T2 sequence (P07724 25-608): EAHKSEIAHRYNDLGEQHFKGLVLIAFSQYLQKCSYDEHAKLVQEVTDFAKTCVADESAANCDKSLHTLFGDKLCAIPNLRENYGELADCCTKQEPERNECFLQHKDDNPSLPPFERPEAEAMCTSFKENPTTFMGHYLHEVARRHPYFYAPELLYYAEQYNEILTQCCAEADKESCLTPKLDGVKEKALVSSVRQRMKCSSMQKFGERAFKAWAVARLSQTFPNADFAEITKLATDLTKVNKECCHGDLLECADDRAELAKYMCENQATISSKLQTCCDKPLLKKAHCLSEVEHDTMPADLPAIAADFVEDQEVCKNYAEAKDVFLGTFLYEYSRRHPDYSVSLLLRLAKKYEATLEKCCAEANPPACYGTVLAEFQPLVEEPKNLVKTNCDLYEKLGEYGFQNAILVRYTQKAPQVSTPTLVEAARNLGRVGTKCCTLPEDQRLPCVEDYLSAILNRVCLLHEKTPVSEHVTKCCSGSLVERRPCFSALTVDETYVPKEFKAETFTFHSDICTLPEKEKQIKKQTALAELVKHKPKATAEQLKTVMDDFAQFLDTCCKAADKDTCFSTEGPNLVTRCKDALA

B1: ELP(10FA)-GFP, ISAz treated (other)
chain: VPGAGVPG[Phe(4-N3)](alkynyl palmitic acid)GVPGGGVPGAGVPG[Phe(4-N3)](alkynyl palmitic acid)GVPGGGVPGAGVPG[Phe(4-N3)](alkynyl palmitic acid)GVPGGGVPGAGVPG[Phe(4-N3)](alkynyl palmitic acid)GVPGGGVPGAGVPG[Phe(4-N3)](alkynyl palmitic acid)GVPGGGVPGAGVPG[Phe(4-N3)](alkynyl palmitic acid)GVPGGGVPGAGVPG[Phe(4-N3)](alkynyl palmitic acid)GVPGGGVPGAGVPG[Phe(4-N3)](alkynyl palmitic acid)GVPGGGVPGAGVPG[Phe(4-N3)](alkynyl palmitic acid)GVPGGGVPGAGVPG[Phe(4-N3)](alkynyl palmitic acid)GVPGGG
modifications: not fully specified (C-terminus); also: pAzF coupled to alkynyl palmitic acid by click (triazole)
Kd (human serum albumin): 1640 nM | Kd (mouse serum albumin): 2220 nM
